Test results: PMC5493754, “Myosin 7 and its adaptors link cadherins to actin” (Nature Communications, 2017)

Legend:
Settings in all cases: both partners purified
YFP-Myosin 7a MF2 = molecular target: T1, YFP-Myosin 7a MF2 (human, UniProt Q13402-1 1702-2215); test: MST; YFP-fused partner constant at 100 nM, non-fluorescent protein titrated (16 two-fold dilutions); 20 mM Hepes pH 7.0, 100 mM NaCl, 1 mM EGTA, 0.5 mM TCEP, 0.05% Tween 20; Monolith NT.115
T1 construct: Myosin 7a, human, MF2, residues 1702-2215 of UniProt Q13402-1; pET14-YFP vector; also called ^YFPM7a MF2; source: E. coli (BL21-AI, BL21 (DE3) Rosetta or BL21-Gold (DE3)), purified (Histrap, CaptoQ, gel filtration)
T1 sequence (looked up): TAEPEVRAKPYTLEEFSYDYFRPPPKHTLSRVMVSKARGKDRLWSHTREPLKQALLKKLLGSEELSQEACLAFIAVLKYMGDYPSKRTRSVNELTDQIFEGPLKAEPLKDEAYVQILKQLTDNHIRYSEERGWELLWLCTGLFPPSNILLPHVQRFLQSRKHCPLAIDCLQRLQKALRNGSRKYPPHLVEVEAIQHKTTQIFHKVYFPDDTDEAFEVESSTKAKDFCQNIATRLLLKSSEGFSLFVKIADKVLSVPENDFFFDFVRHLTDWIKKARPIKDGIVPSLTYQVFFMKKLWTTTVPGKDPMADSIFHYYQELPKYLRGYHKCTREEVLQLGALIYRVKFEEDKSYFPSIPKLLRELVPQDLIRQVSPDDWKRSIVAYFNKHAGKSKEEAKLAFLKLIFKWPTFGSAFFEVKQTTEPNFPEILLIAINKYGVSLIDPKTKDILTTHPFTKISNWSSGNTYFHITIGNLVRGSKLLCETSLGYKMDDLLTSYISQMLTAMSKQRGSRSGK

[1] = molecular target: T2, YFP-Full length (FL)-harmonin (harmonin-a1) (human, UniProt Q9Y6N9-1 1-552); test: MST; as a1 but 150 mM NaCl (for FL-Harmonin-a); YFP-fused partner constant at 100 nM, non-fluorescent protein titrated
T2 construct: Harmonin-a1 (USH1C), human, residues 1-552 of UniProt Q9Y6N9-1; also called ^YFPFL (isoA); ^YFPFL; source: E. coli BL21 (DE3) Rosetta, purified (Glutathione Sepharose 4B, size-exclusion chromatography)
T2 sequence (looked up): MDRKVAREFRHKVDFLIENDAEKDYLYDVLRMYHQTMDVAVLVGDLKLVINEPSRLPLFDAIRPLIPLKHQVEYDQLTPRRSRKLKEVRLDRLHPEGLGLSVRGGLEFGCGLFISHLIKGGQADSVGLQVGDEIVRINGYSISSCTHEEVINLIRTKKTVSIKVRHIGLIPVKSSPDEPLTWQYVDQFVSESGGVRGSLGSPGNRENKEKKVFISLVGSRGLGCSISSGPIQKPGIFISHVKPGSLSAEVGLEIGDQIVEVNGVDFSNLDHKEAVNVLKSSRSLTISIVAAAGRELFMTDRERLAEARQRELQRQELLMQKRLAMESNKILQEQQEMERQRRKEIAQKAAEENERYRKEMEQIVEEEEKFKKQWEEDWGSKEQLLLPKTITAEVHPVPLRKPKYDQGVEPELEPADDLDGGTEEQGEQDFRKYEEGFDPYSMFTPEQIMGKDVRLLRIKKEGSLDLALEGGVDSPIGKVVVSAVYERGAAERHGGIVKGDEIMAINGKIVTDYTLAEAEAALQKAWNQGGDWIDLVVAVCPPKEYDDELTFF

Myosin 7b MF2 = molecular target: T3, Myosin 7b MF2 (human, UniProt Q6PIF6 1605-2116); test: MST; YFP-fused partner constant at 100 nM, non-fluorescent protein titrated (16 two-fold dilutions); 20 mM Hepes pH 7.0, 100 mM NaCl, 1 mM EGTA, 0.5 mM TCEP, 0.05% Tween 20; Monolith NT.115
T3 construct: also called M7b MF2; Myo7b MF2; source: E. coli (BL21-AI, BL21 (DE3) Rosetta or BL21-Gold (DE3)), purified (Histrap, CaptoQ, gel filtration)
T3 sequence (looked up): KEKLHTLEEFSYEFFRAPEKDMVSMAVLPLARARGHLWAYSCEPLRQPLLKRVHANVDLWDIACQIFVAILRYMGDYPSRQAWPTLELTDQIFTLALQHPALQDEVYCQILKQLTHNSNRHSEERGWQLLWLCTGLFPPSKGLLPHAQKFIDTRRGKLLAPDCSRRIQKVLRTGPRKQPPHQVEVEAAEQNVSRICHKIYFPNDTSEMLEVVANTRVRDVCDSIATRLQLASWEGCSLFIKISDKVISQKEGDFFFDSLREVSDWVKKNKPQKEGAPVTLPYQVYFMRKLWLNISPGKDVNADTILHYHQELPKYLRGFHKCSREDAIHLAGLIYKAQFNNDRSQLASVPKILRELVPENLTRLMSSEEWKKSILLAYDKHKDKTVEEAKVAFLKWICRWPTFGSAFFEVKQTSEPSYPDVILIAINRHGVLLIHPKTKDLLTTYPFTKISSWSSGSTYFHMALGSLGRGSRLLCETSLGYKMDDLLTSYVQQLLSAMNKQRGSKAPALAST

Myosin 7b MF2 L2083W = molecular target: T4, Myosin 7b MF2 L2083W (human, UniProt Q6PIF6 1605-2116, L2083W); test: as above
T4 construct: Myosin 7b, human, MF2, residues 1605-2116 of UniProt Q6PIF6; also called M7b MF2 L2083W; source: E. coli, purified similarly as wild type (Histrap, CaptoQ, gel filtration)
T4 sequence (looked up): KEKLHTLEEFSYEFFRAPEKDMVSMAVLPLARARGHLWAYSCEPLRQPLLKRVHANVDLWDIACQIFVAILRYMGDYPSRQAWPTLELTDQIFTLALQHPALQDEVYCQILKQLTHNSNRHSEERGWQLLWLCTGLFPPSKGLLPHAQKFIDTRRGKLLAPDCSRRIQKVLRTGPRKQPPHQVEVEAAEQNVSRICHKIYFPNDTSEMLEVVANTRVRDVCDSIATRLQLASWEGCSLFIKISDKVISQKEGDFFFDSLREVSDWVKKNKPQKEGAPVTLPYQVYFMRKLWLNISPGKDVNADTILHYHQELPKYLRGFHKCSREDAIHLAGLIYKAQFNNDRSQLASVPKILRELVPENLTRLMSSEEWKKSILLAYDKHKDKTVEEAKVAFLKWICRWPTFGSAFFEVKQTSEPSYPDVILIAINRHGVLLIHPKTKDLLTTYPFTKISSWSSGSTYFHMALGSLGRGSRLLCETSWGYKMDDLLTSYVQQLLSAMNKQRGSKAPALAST

Binder | Kd (YFP-Myosin 7a MF2) | Kd [1] | Kd (Myosin 7b MF2) | Kd (Myosin 7b MF2 L2083W)
Harmonin-a PDZ3c (non-fluorescent, as used in MST) (domain or fragment, human, UniProt Q9Y6N9-1 428-552, looked up, Harmonin-a1 (USH1C), human, PDZ3 plus C-terminal peptide, residues 428-552 of UniProt Q9Y6N9-1; The methods say only that samples for ITC or crystallisation were digested with TEV protease; also called PDZ3c (isoA); source: E. coli BL21 (DE3) Rosetta, purified (Glutathione Sepharose 4B, size-exclusion chromatography)) QDFRKYEEGFDPYSMFTPEQIMGKDVRLLRIKKEGSLDLALEGGVDSPIGKVVVSAVYERGAAERHGGIVKGDEIMAINGKIVTDYTLAEAEAALQKAWNQGGDWIDLVVAVCPPKEYDDELTFF | 1400 ± 200 nM | 1400 nM | – | –
YFP-Harmonin-a PDZ3c (domain or fragment, human, UniProt Q9Y6N9-1 428-552, looked up, Harmonin-a1 (USH1C), human, residues 428-552 of UniProt Q9Y6N9-1; also called ^YFPPDZ3c (isoA); source: E. coli BL21 (DE3) Rosetta, purified (Glutathione Sepharose 4B, size-exclusion chromatography)) QDFRKYEEGFDPYSMFTPEQIMGKDVRLLRIKKEGSLDLALEGGVDSPIGKVVVSAVYERGAAERHGGIVKGDEIMAINGKIVTDYTLAEAEAALQKAWNQGGDWIDLVVAVCPPKEYDDELTFF | – | – | 1900 ± 600 nM | > 300000 nM
